Results as given in the DeepSol protein solubility set.

Test: soluble on expression in E. coli; label from the status in PepcDB or PDB records

Row | Sequence | soluble on expression in E. coli
1 | GTEDTFWKDETDFNLALTSCYTPLKNALNGGYYGTRGVMLRIARADEVDFRNDISDVYTVNRFTNSNTNSLTQGMFYQFYNALYRTNSIMQKLEEKKEQFSTDFQNSVKGECLFIRGFYLFQLAKEFKDAPLRLTASQSPSTFPLAKSSQADIWAQAKEDLKTAASLLPITNKIGKPTQGAAYAALGKIYVYEENWQEAINVLEPLTQNPYTYKLVEDFNWNFDDTHENNAESIFELLIEDVGGTDLWGDGENINSTQSNTRPKEYAAAEVGGWYEANPTQQIMDIFWKEKDKDGNFDYRARCSVAWDYEGCTYYQRPFREVFAQDKWKTYWILKYQNWKTQKDEPAPPKSFINERAIRYADVLLMLAEAYMNKGALDTSIGYINQIRRRANLNDYSGPITKEGVFEDLVHQRAIEFFVEGERFYDLRRWGLLEQTLKTCDDTRYKNYQTGKSDNINKFNYFPIPAKELDTNPLCTPSEGW | soluble
2 | MEIKMAKDYGFCFGVKRAIQIAEKNQNSLIFGSLIHNAKEINRLEKNFNVKIEEDPKKIPKNKSVIIRTHGIPKQDLEYLKNKGVKITDATCPYVIKPQQIVESMSKEGYQIVLFGDINHPEVKGVISYATNQALVVNSLEELQEKKLQRKVALVSQTTKQTPKLLQIASYLVERCTEVRIFNTICNATSYNQKAALDLSKEVDIMIVVGGKTSSNTKQLLSIAKQHCKDSYLVEDENELELAWFKDKKLCGITAGASTPDWIIENVKQKISTILEHHHHHH | not soluble
3 | SLIYFFMVDAVELSRKYEGKIEIYPKVPITSYNDFALIYTPGVAEVSKAIYKDPDKSFELTSRWNTIAVVTDGTRVLGLGNIGPTAAMPVMEGKSLLFKYLGGVDAIPLPINVKSADEFTNVVKALETSFGGINLEDIESPKCFYILEKLQSMLNIPVWHDDQQGTAAAILAGLINAMILTNKDPKESKVVFYGAGASNIAAARILAKYGFKYENIVMIDSKGPLYADREDVDHLMLHHKWKYELAIKTNKWEAKEIKDAFSGADAVVAASTPGPNVIKKEWISLMNKEAIVFALANPVPEIWPQDAKEAGAKIVATGRSDFPNQVNNSLIFPAIFRGVLDSRAKAITDEMTIAASEALAKYARDRGINENYIIPRMDEWEAFYEEAAAVASKAVELGLARVKKSREEFREIAKERIIRARKIMNLVISTWSPEG | soluble
4 | MEDKEAVRRGVTLFALPAHAGEGAKAIWQTCDVIWSALGDSSEDVNWYTKRATLSAVYSATVLYWLGDETPGHEATWEFLDRRIDNVMQFEKFKADVQKNPLLKPLLAGPNWLFAQMRAPLEHHHHHH | soluble
5 | MTLVIGLTGGIASGKSTVANMLIEKGITVIDADIIAKQAVEKGMPAYRQIIDEFGEDILLSNGDIDRKKLGALVFTNEQKRLALNAIVHPAVRQEMLNRRDEAVANREAFVVLDIPLLFESKLESLVDKIIVVSVTKELQLERLMKRNQLTEEEAVSRIRSQMPLEEKTARADQVIDNSGTLEETKRQLDEIMNSWALEHHHHHH | soluble
6 | MYKATVIIKLKKGVLNPEGRTIQRALNFLGFNNVKEVQTYKMIDIIMEGENEEKVKEEVEEMCKKLLANPVIHDYEIKVEKIE | soluble
7 | MAHHHHHHSLQTGIPALPPIAQPLPVPAPAPVTPPAPTVPVPQEPAPVPQPPMPQPSVPQTPAPQKPVTPRPAPAPSRAPLLIQARANVPALVAGKKTTVPVLKTLTIPAERAAQLRQRGEVSASLQADLDTFLKSLAAPRDARFEQQDDGQWAVVQPNGLKVDAQATRAAVAKVLRDPRGVSANVVVTGQVAPQRTLDFFASRGITTFLATGFTSYYGSSPERVKNIHVGAQNFKDRLFEGDVFSFNKFIGPVSERNGYVPGLVIAGDQTASGVGGGICQVSTTVFRTLYGAGLGIVQRQNHSYQVFYYDPQGLDATIYQPQLDLKFANTTGGPIWFQTEWDDQEATLTITAFGQARDYQVQVDAPKTLKTVAPPKDRLIPDASLPAGQRKQVDWAAPGATIEVTRRFTRGGKTFKQDTLRSVYRPWPNIFRVGTKKEG | not soluble
8 | MSLSDFLILSDPDLDTLGITTDEIQTALEAAIRAQIRATVHVAPKSALLPGDGRYVMTTLATGNSPALTVVKSVMVSPDNPARGLPGTEGVLLVQDSETGQLRALMQAGWITRMRTAGLSALVARRLGDPAARVVAFIGAGAQARAHLAALCDLFPLQRAVILGRGAENIARLSAAARARGLQAEIADNPHQAIADADLVVSSVTLDHQMTPFLDARWLKPGAFASLTDTGLPWQPDGMAALDPLYIDDLAQEAANPRPMIDPARVGGDLAALLGEDLHSTNVNRHDPSRRAGFLFRGPAIADFALAALALHRAQSLGAGRDTAWPDATREGHHHHHH | soluble
9 | METRRAERINKLIQALKRSDKIHLKDAANLLRVSEMTIRRDLSAEPTSVILLGGYVVMDPKSNNANNYFVSDQQAKQVEEKRRIGQLAAQLIIENDTVFFDCGTTIPWIIDEIDEELAFTAICYSLNTFLALQDKPNCKVILCGGEFKPNNCIFTPLSQQSELDNICPNKAFISAAGVSIEYGATCFNFDEILLKHRAMAKSQYKILVADHSKFGKIKPASIGTLAQFDALVTDRPPVAEFYLFFSQHSVKIYC | not soluble
10 | MGSDKIHHHHHHMRVYIGCGGYTDEDWTAPGLIYEGVKKDAFLETYAHHFDAVELNSSFYAIPGLKAFEGMVRKSGGWVRFAVKLNKVFTHVRAPTDTDFDRMLQSPEPLREAGMMGPYLAQFPYSFHRTAANRKYLALLTERFAGHELAVELRHASWDKPEVREGMGEFGIIWVSPDYPPVGGMPEPQVHVTGDVGYLRLHGRNRETWWEGQSAGERHDYLYNRAEMDEWAEKIAAVAGDLSELYVFFQNTTGGHALKNIPMLREALNARGVPVQTPEAHDGGRLL | not soluble
11 | MSLYLEKYYYEKNIQEEFFKFLYSMTGKKEEIVVICIGDPVFEGNILAPLVGTLLHERNIPNVYGTLKEPVYEINIKEIYNKILKKYDNPYIILVASSFPVDFHDEREVIVLKNDPYEIQTASGSLKLGNASFIVVFDLEDSYCKVNFIEKLGIRKIYKYSEAIFKTLYYILHNKNYVKEGHHHHHH | soluble
12 | MAHHHHHHMSTSNEEDKWSAISAKKIAPKYRKGYYPNRDIMTPKKKTEKKELTYKNSKIAIGRTKSLRFRRDTVTFATKNINFQHRKKSILSKQKSMAEPKLKKQNTVALKRRKTMSRLNSMKKPPYTIVLNKKKVINMNKGMHPSENRKDKISGTTNTPLAARRMLARSKTKVLVDNETKIFKKENVKMVSSNPFNPIASSVESSRRNELENGKQKKELGTVGSANKRESAQHLSTNADKKKIYHNSVRNKLKSKKEEMFQNIISLTKNMKEKPLKKKYNDQIDPRDLLSVTSNNSSVAVDDDL | not soluble
13 | SRPADLLQLVLLLDLPRDLGGMGCSSPPCECHQEEDFRVTCKDIQRIPSLPPSTQTLKLIETHLRTIPSHAFSNLPNISRIYVSIDVTLQQLESHSFYNLSKVTHIEIRNTRNLTYIDPDALKELPLLKFLGIFNTGLKMFPDLTKVYSTDIFFILEITDNPYMTSIPVNAFQGLCNETLTLKLYNNGFTSVQGYAFNGTKLDAVYLNKNKYLTVIDKDAFGGVYSGPSLLLPLGRKSLSFETQKAPRSSMPS | soluble
14 | SASGDFCSPGEGMEILQQVCSKQLPPCNLSKEDLLQNPYFSKLLLNLSQHVDESGLSLTLAKEQAQAWKEVRLHKTTWLRSEILHRVIQELLVDYYVKIQDTNVTSEDKKFHETLEQRLLVTELMRLLGPSQEREIPPLLGLEKADLLELMPLSEDFVWMRARLQQEVEEQLKKKCFTLLCYYDPNSDADSETVKAAKVWKLAEVLVGEQQQCQDAKSQQKEQMLLLEKKSAAYSQVLLRCLTLLQRLLQEHRLKTQSELDRINAQYLEVKCGAMILKLRMEELKILSDTYTVEKVEVHRLIRDRLEGAIHLQEQDMENSRQVLNSYEVLGEEFDRLVKEYTVLKQATENKRWALQEFSKVYR | not soluble
15 | MGSQAAHMMSMDFEDFPVESAHRILTPRPTVMVTTVDEEGNINAAPFSFTMPVSIDPPVVAFASAPDHHTARNIESTHEFVINITPADIIERMWVTARDIPAGENELEAAGLAWTSSRRVKPPRIVEAPGHLECELLRMFEVGDHNLITGSVVSASVRSGAVKEGLLDVESVKPVLHVGGNKFVVGDHVRHVE | soluble
16 | MGSDKIHHHHHHMENDILKYQKAYNTIVKLLKSNEKVLATMVFGSIVSGDLWEESDIDLFVIIDEEMANIKNIYMEQNDVPIHIKLMGKNKFVLLNENDIKGGFFHRIFASSKLVFSKDKDITEKYDSGRYYPDIDREKWNMVYISDLLKSLGLCKKYLNNKRIYTAYYFSVKCVEEFSKLYINHSGYMVNKDDVNMLTNINGDFKNYIDNLFFSKDNVEEAIKEVVDKIEEFINKNIKSITAILIDYMRDKDKSLSAEDINTDPVFNDFSINFEEILSKLWEFNIIKKGTRKYSIKDGKALCMENVYYL | not soluble
17 | MLSIKGKKWRNWTGNVEGTPHYTMYPESIQDVVEVVGLARKKGKKIRVVGSGHSFTPLVQTEEVLVSLDELKGIVNIDAEKMVAEVWAGTKLYDLGKLLEEKGYAQENLGDIDSQSIAGAISTGTHGTGITFGSLSTQVIEITAVLSNGESIVCSETENVEYWRAFQLSLGMLGIIVKIKLKVIPAYSLVYESEKQSLSTVMNKLEEYKKHRHFEFFVFPYSDEVQVKLTNETTNTGSDLKWHKLKVELLENRMFSLLSKGCKWFPSISKGVSRLSAKAVPNTKIIGPSYEVFATSRTVPFYEMEYSIPSKYMRTVVEEISNLIEKKKYKVHFPIECRYVKGDDIWLSPAYGRDSAYIAVHMYKGMKYAAYFGEVEKIFLKYEGRPHWGKMHTLSYEQLQDIYPEFHSFLQARKSLDELGMFFNPYAEKLFIPLFAGQLEHHHHHH | soluble
18 | MGSDKIHHHHHHMDERWMVMKITIVFENHAGYRKGLIGYHGFSALVEANGYRVLVDTGTDGKVLLNNMSELGISPDDIDALFITHGHYDHTGGLRELLSARTEALDIYAHPGIFKRRLALKPKKREIGIPFTREELEELGGKFILSDKSKEILPGFISSGEIERITWDRAVGYFPDGSKDPVRDDMALIVEEGSKSVVITGCGHSGIINIAIHSKKLTNNRIAALIGGFHLKGIERSLLDEAVKKLRELEIEKLYPGHCTGIEEFAYLWSKFGNVEGIHVGKEIKI | not soluble
19 | MKLTGFLKQNVRVRFAPSPTGHLHIGGLRTAFFNYLFAKKYGGDFILRIEDTDRTRFVDDAQDQIYSSLNFYNLLPDEGPREGGKFGPYEQSKRLEIYRNAAYRLIDSGHAYRCFCSENRLDLLRKTAEKRGEIPKYDRKCANLSSRDAVKMEQNGEKFVIRFKLDKQNVQFHDEVFGSVNQFIDESDPVLLKSDGFPTYHLANVIDDRKMEISHVIRGMEWLSSTGKHTILYKAFNWTPPKFVHLSLIMRSATKKLSKRDKDAFVSYYSEQLGALPEAVLNLMIRNGAGIRNFDAEHFYSLDEMIEQFDLSLLGRRNLLLDSDVLQKYSRMAFQKSDFKELYPRIIDILNKKSNYSTSREDIQKIVTFLKAKEENFGFLSSLSTEFSWFFTRPQSSQLLKESHPNVDLRNILNSLLEIEVFNSESLEYLAKNHQLNLAKAMGIVRISLIGSKKGPPISELVEFFGMTECHRRIRIMQELL | not soluble
20 | MGSDKIHHHHHHMAQKNNNVIPMTFDDAFYRKMAKQKFKQREYKRAAEYFEKVLELSPDDLEIQIDYAQCLVQLGIAKKAEHLFYDNIIYNRHLEDSFYELSQLNIEVNEPNKAFLFGINYVIVSDDQDYRDELDQMFDVKYQSEEQIELEAQLFVVQILFQYLFSQGRLKDAKNYVLHQPQEVQDHRVVRNLLAMCYLYLGEYDTAKALYEALLQEDSTDIYALCHYTLLLYNTKENEQYQKYLKILNKVVPMNDDESFKLGIVLSYLKQYRASQQLLYPLYKKGKFLSIQMYNALAYNYYYLGEEDESHYYWDKLKQISKVEIGHAPWVIENSKEVFDQHILPLLQSDDSHYRLYGIFLLDQLNGKEIVMTESIWQVLENLNNYEKLYLTYLVQGLTLNKLDFIHRGLLTLYQNELFVSENDLMVAWINQGELIIAEKVDLTDVEPYIGAFIYLYFKNQPRNVTKKQITTWLGITQYKLNKMIEFLLSI | not soluble
